First the molecules themselves.
B1: library; a variant is named by its letters at N, in order (parent)
chain: ACATTTGTTGATACAACCATAAAATGATAATTACACCCATAAATTGATAATTATCACACCCANNNNNNNNNNNNNNCTCTGATCATAGTCAGACCAACATTGCTACGACCCGTATTCGCACCGACAC

In data set [1] the parent is B1. Description: relative integration efficiency (T-RL orientation) vs wild-type transposon end (log2 (normalized fold change)); transposon end mutated: right end (5 bp flank + 75 bp right end); higher = more efficient transposition. The following applies: with VchCAST RNA-guided transposition machinery (E. coli BL21(DE3) host, lacZ target). As to the method:
(§1)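 Pooled, barcoded VchCAST (Tn6677) mini-transposon donor libraries; each variable transposon-end sequence sits in a fixed pDonor mini-transposon context (10-bp barcode and cargo not included). Left- or right-end libraries were co-transformed with pEffector (TniQ-Cascade, TnsABC, lacZ crRNA, T7, 0.1 mM IPTG) into E. coli BL21(DE3) and grown 18 h at 37 C. T-LR and T-RL junction amplicons were sequenced; output/input barcode fold change was normalised to the mean of four wild-type barcodes and log2-transformed. Two biological replicates; zero-count/undetected variants carry floor values (-10 / -15), censored here. Barcode uncoupling by PCR recombination adds noise.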

Data set [2] covers variants of B1. Kind of data set: relative integration efficiency (T-LR orientation) vs wild-type transposon end (log2 (normalized fold change)); transposon end mutated: right end (5 bp flank + 75 bp right end); higher = more efficient transposition. The conditions noted are these: with VchCAST RNA-guided transposition machinery (E. coli BL21(DE3) host, lacZ target). The protocol:
as §1

± gives the standard deviation of the averaged measurements.

As for ATTTAACTATAACG T12A, the figures for the “relative integration efficiency (log2)” value in data set [1] and in data set [2] were -0.998 ± 0.097 and 2.03 ± 0.032, respectively.
ATTTAACTATAACG T12G: the “relative integration efficiency (log2)” value was -0.699 ± 0.2 in data set [1] and 1.76 ± 0.15 in data set [2].
Consider ATTTAACTATAACG A13T, for which the “relative integration efficiency (log2)” value in data set [1] is -1.09 ± 0.14; in data set [2], 1.84 ± 0.15.
Regarding ATTTAACTATAACG A13C, the “relative integration efficiency (log2)” value in data set [1] was -0.7 ± 0.17; in data set [2], 2.25 ± 0.23.
Taken in the same sequence, the figures for ATTTAACTATAACG A53C were -1.32 ± 0.33 and 2.49 ± 0.26.
For the variant ATTTAACTATAACG A53G, the figures for the “relative integration efficiency (log2)” value in data set [1] and in data set [2] were -1.38 ± 0.34 and 2.239 ± 0.0053, respectively.
Consider ATTTAACTATAACG A29C, for which the “relative integration efficiency (log2)” value is -1.83 ± 0.43 in data set [1] and 1.8 ± 0.15 in data set [2].
Turning to ATTTAACTATAACG A29T, the “relative integration efficiency (log2)” value in data set [1] was -1.09 ± 0.32; in data set [2] it was 2.6 ± 0.24.
With ATTTAACTATAACG T52A, the “relative integration efficiency (log2)” value in data set [1] was -1.26 ± 0.2; in data set [2], 2.3 ± 0.12.
For ATTTAACTATAACG T44A the same measures were -0.682 ± 0.22 and 2.32 ± 0.13.
ATTTAACTATAACG T44G: the “relative integration efficiency (log2)” value is -0.646 ± 0.027 in data set [1] and 2.17 ± 0.033 in data set [2].
Consider ATTTAACTATAACG T44C, for which the “relative integration efficiency (log2)” value is -0.948 ± 0.24 in data set [1] and 2.28 ± 0.14 in data set [2].
Taken in the same sequence, the figures for ATTTAACTATAACG A16T were -0.779 ± 0.2 and 2.59 ± 0.066.
Turning to ATTTAACTATAACG A16C, the “relative integration efficiency (log2)” value is -1.24 ± 0.14 in data set [1] and 2 ± 0.11 in data set [2].
For ATTTAACTATAACG A16G, the “relative integration efficiency (log2)” value in data set [1] is -1.04 ± 0.027; in data set [2], 2.09 ± 0.17.
Regarding ATTTAACTATAACG G10A, the “relative integration efficiency (log2)” value is -0.62 ± 0.18 in data set [1] and 1.89 ± 0.087 in data set [2].
Take ATTTAACTATAACG G10T: the “relative integration efficiency (log2)” value was -1.54 ± 0.43 in data set [1] and 0.15 ± 0.026 in data set [2].
Turning to ATTTAACTATAACG G10C, the “relative integration efficiency (log2)” value in data set [1] is -1.15 ± 0.31; in data set [2], 0.7 ± 0.19.
Taken in the same sequence, the figures for TAAATTGATATTGC T32C were -0.438 ± 0.11 and -0.169 ± 0.21.
For TAAATTGATATTGC T32A the same measures were 0.933 ± 0.11 and 0.96 ± 0.14.
TAAATTGATATTGC T32G: the “relative integration efficiency (log2)” value is -1.26 ± 0.063 in data set [1] and 0.729 ± 0.26 in data set [2].
For ATTTAACTATAACG T40A the same measures were -1.01 ± 0.19 and 1.82 ± 0.13.
Regarding ATTTAACTATAACG T40G, the results for the “relative integration efficiency (log2)” value in data set [1] and in data set [2] were -2.18 ± 0.11 and 0.496 ± 0.47, respectively.
Turning to ATTTAACTATAACG T40C, the “relative integration efficiency (log2)” value was -1.72 ± 0.32 in data set [1] and 1.196 ± 0.0054 in data set [2].
In the case of ATTTAACTATAACG A43T, the “relative integration efficiency (log2)” value was -0.99 ± 0.12 in data set [1] and 2.15 ± 0.11 in data set [2].
On to ATTTAACTATAACG A43C, for which the “relative integration efficiency (log2)” value was -0.798 ± 0.095 in data set [1] and 2.4 ± 0.038 in data set [2].
Taken in the same sequence, the figures for ATTTAACTATAACG A43G were -0.724 ± 0.15 and 2.29 ± 0.09.
For the variant ATTTAACTATAACG A30C, the results for the “relative integration efficiency (log2)” value in data set [1] and in data set [2] were -1.2 ± 0.42 and 2.682 ± 0.016, respectively.
On to ATTTAACTATAACG A30G, for which the “relative integration efficiency (log2)” value in data set [1] was -1.51 ± 0.13; in data set [2] it was 2.11 ± 0.26.
For ATTTAACTATAACG A30T the same measures were 0.406 ± 0.54 and 4.401 ± 0.043.
For TAAATTGATATTGC T25C, the figures for the “relative integration efficiency (log2)” value in data set [1] and in data set [2] were -0.146 ± 0.0084 and -0.488 ± 0.0056, respectively.
Consider TAAATTGATATTGC T25A, for which the “relative integration efficiency (log2)” value in data set [1] was -0.524 ± 0.069; in data set [2], -0.8 ± 0.34.
In the case of TAAATTGATATTGC T25G, the “relative integration efficiency (log2)” value in data set [1] was -0.25 ± 0.041; in data set [2], -0.0581 ± 0.34.
Regarding ATTTAACTATAACG A49T, the “relative integration efficiency (log2)” value was -1.3 ± 0.35 in data set [1] and 2.31 ± 0.04 in data set [2].
On to ATTTAACTATAACG A49C, for which the results for the “relative integration efficiency (log2)” value in data set [1] and in data set [2] were -1.46 ± 0.19 and 2.17 ± 0.094, respectively.
For ATTTAACTATAACG A27C the same measures were -1.49 ± 0.28 and 1.82 ± 0.022.
With ATTTAACTATAACG A27T, the figures for the “relative integration efficiency (log2)” value in data set [1] and in data set [2] were -1.93 ± 0.43 and 1.735 ± 0.0049, respectively.
For ATTTAACTATAACG A27G the same measures were -1.43 ± 0.34 and 2.14 ± 0.29.
As for TAAATTGGTATTGC, the “relative integration efficiency (log2)” value in data set [1] turned out to be 0.0075 ± 0.082; in data set [2], 0.963 ± 0.065.
As to ATTTAACTATAACG A24C, the entries for the “relative integration efficiency (log2)” value in data set [1] and in data set [2] were -0.878 ± 0.18 and 2.28 ± 0.015, respectively.
Consider ATTTAACTATAACG A24G, for which the “relative integration efficiency (log2)” value in data set [1] is -0.674 ± 0.13; in data set [2], 2.25 ± 0.086.
In the case of ATTTAACTATAACG A24T, the figures for the “relative integration efficiency (log2)” value in data set [1] and in data set [2] were -0.752 ± 0.19 and 2.39 ± 0.024, respectively.
For ATTTAACTATAACG A41T the same measures were -0.673 ± 0.15 and 2.347 ± 0.0099.
Taken in the same sequence, the figures for ATTTAACTATAACG A41C were -1.53 ± 0.21 and 1.39 ± 0.29.
In the case of ATTTAACTATAACG T31A, the “relative integration efficiency (log2)” value is -1.32 ± 0.36 in data set [1] and 2.39 ± 0.16 in data set [2].
In the case of ATTTAACTATAACG T31C, the “relative integration efficiency (log2)” value in data set [1] was -0.932 ± 0.22; in data set [2], 2.62 ± 0.071.
Take ATTTAACTATAACG T31G: the “relative integration efficiency (log2)” value in data set [1] is -1.44 ± 0.31; in data set [2], 2.54 ± 0.17.
Consider TAAATTGTAATTGC, for which the “relative integration efficiency (log2)” value in data set [1] is -0.121 ± 0.11; in data set [2], 1.88 ± 0.1.
For the variant ATTTAACTATAACG A35C, the results for the “relative integration efficiency (log2)” value in data set [1] and in data set [2] were -0.737 ± 0.15 and 2.11 ± 0.15, respectively.
Regarding ATTTAACTATAACG A35T, the “relative integration efficiency (log2)” value in data set [1] was -1 ± 0.29; in data set [2], 2.07 ± 0.25.
Turning to TAAATTGATATTTA, the entries for the “relative integration efficiency (log2)” value in data set [1] and in data set [2] were 0.1 ± 0.034 and 0.122 ± 0.099, respectively.
With TAAATTGATATTTC, the “relative integration efficiency (log2)” value in data set [1] was -0.0163 ± 0.045; in data set [2], -0.13 ± 0.15.
With ATTTAACTATAACG T9C, the “relative integration efficiency (log2)” value in data set [1] is -0.756 ± 0.26; in data set [2], 2.493 ± 0.0031.
For the variant ATTTAACTATAACG T9G, the “relative integration efficiency (log2)” value in data set [1] was -0.534 ± 0.082; in data set [2], 2.39 ± 0.12.
Taken in the same sequence, the figures for ATTTAACTATAACG T9A were -0.86 ± 0.087 and 2.15 ± 0.18.
As for TCAATTGATATTGC, the “relative integration efficiency (log2)” value turned out to be 0.124 ± 0.1 in data set [1] and 2.16 ± 0.12 in data set [2].
TAAATTGATATTGC T12C: the “relative integration efficiency (log2)” value in data set [1] is -0.235 ± 0.019; in data set [2], -0.906 ± 0.64.

(Values after the supplement of paper PMC10201428.)
